Measured values: patent publication US20200297837A1
Where two headings read alike, the source gives them in different places.

Key:
[1] = molecular target: T1, HLA-E*01033 on the HLA-E*01033-transfected derivative of the K562 cell line (human), P13747
[2] = molecular target: T1, HLA-E*01033 on the …; experiment: HLA-E stabilization assay on K562/HLA-E cells, overnight 26 C, anti-HLA-E mAb staining, flow cytometry (without peptide: 1400)

PEIVIYDYM (modifications not checked) [HIV-1 Pol derived peptide … (SEQ ID NO: 16)]
MFI [1]: 7320 MFI

RIRTWKSLV (modifications not checked) [HIV-1 Pol derived peptide … (SEQ ID NO: 17)]
MFI [2]: 6580 MFI

RMYSPVSIL (modifications not checked) [HIV-1 Gag derived peptide … (SEQ ID NO: 1)]
MFI [2]: 8240 MFI

TALSEGATP (modifications not checked) [HIV-1 Gag derived peptide … (SEQ ID NO: 3)]
MFI [2]: 8530 MFI

VMATRRNVL (modifications not checked) [MBt derived peptide … (SEQ ID NO: 15)]
MFI [1]: 7520 MFI
